The source of these data is article PMC3060684.

Substitutions are numbered along the chain they refer to. Like-named read-outs stand apart in the source and are kept apart here.

For data set [1], the target named is T1, GST-CCA1 (Arabidopsis thaliana, UniProt P92973 1-608). As to the kind of experiment: EMSA.
For data set [2], the target named is T1, GST-CCA1. The experiment in a line: EMSA. This is another data set of the same source.

T1 sequence (P92973 whole entry): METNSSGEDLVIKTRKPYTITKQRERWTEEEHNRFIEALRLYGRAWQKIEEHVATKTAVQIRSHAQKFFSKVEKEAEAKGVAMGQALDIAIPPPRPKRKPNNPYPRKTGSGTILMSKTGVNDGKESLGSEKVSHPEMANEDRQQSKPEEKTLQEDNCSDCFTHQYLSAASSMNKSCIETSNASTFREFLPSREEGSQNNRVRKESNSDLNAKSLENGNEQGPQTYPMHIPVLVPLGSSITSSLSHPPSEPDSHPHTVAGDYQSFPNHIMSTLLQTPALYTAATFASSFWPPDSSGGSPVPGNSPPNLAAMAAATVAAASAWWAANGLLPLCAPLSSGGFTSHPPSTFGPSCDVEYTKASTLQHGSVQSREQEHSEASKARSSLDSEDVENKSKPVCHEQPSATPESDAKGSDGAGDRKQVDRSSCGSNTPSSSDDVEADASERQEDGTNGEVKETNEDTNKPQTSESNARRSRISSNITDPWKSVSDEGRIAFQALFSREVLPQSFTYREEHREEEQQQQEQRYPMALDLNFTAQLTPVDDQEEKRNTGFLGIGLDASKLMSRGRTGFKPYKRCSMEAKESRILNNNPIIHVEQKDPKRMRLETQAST

B1: LumFD (LumFDs/LumFDa) (dsDNA)
DNA 1: AAGTGAAAAAAAAAAGAGCTATTCGAAGGG
DNA 2: GATTCCCTTCGAATAGCTCTTTTTTTTTTC
Regarding B1, in the data set with GST-CCA1 [1], the binding result is listed as “no binding”.

B2: LumM (LumMs/LumMa) (dsDNA)
DNA 1: TAAGTAGATATTGAAAGCAAGATTGAAAAAAATGTTG
DNA 2: AATCAAACATTTTTTTCAATCTTGCTTTCAATATCT
With B2, in the data set with GST-CCA1 [2], the binding result is reported as “binds”.

B3: LumMD (LumMDs/LumMDa) (dsDNA)
DNA 1: B2 DNA 1 with A8C
DNA 2: B2 DNA 2 with T34G
As to B3, the binding result with GST-CCA1 [1] is recorded as “no binding”.

B4: LumF (LumFs/LumFa) (dsDNA)
DNA 1: B1 DNA 1 with C19A
DNA 2: B1 DNA 2 with G16T
As to B4, in the data set with GST-CCA1 [2], the binding result is given as “binds”.
